Reference: the supplement of paper PMC6757056
± gives the standard deviation of the averaged measurements.

B1: library; a variant is named by its letters at N, in order (parent)
chain: GCUGUCACCGGUGUAUUACCCUAGUGGUCGACCGGUCUGAUGAGUCUNNNNNNAGACGAAACAGC

Columns and labels:
[1] = variants of: B1; experiment: normalized RNA/DNA level with ligand (relative to sTRSVctl = 100) (log10 (% of sTRSVctl)); ligand: hypoxanthine (xanthine aptamer); higher = less ribozyme self-cleavage, higher mRNA level; conditions: ligand concentration (+) RNA-Seq: 5 mM, HEK293T, reporter: mCherry (pCS4076), ligand present: yes
Summary of the method: (§1)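 Ribozyme switch library plasmids with mCherry reporters (eGFP in certain ligand experiments) went into HEK293T cells at 4 µg per 6-well well. Where ligand was used, it was applied 1 h before transfection, and total RNA was extracted with EDTA 72 h later for reverse transcription, amplification, barcoding and sequencing. RNA level is the RNA-to-DNA read ratio normalized to a spiked-in non-cleaving sequence or to the leading sequences, then scaled and log-transformed. Scaling was ×100 with log10, the leading set comprised 25 sequences, and the cutoff was ≥100 DNA reads.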

[2] = variants of: B1; experiment: normalized RNA/DNA level without ligand (relative to sTRSVctl = 100) (log10 (% of sTRSVctl)); ligand: hypoxanthine (xanthine aptamer); higher = less ribozyme self-cleavage, higher mRNA level; conditions: HEK293T, reporter: mCherry (pCS4076), ligand present: no
Summary of the method: as §1

Variant	normalized RNA/DNA level with ligand (log10) [1]	normalized RNA/DNA level without ligand (log10) [2]
CCUCAA	1.929 ± 0.0046	1.84 ± 0.025
CCAGAU	1.9387 ± 0.00089	1.8 ± 0.057
CAGCAC	1.94 ± 0.035	1.81 ± 0.034
GGUCGG	1.87 ± 0.031	1.65 ± 0.021
GGGGUU	1.98 ± 0.037	1.96 ± 0.034
GGGGUC	1.94 ± 0.025	1.84 ± 0.03
GCACCG	1.89 ± 0.023	1.62 ± 0.058
UACUGC	1.97 ± 0.072	1.846 ± 0.0079
UUGGUU	1.99 ± 0.037	1.91 ± 0.025
GUAUAA	1.87 ± 0.052	1.78 ± 0.02
UUACCU	1.99 ± 0.053	1.88 ± 0.029
CUACCC	1.935 ± 0.014	1.88 ± 0.06
GGCAUC	1.97 ± 0.074	1.91 ± 0.057
UGUCGC	1.9324 ± 0.0018	1.89 ± 0.1
CAUCCA	1.97 ± 0.056	1.94 ± 0.055
UCGUUG	1.98 ± 0.095	1.785 ± 0.01
CCUGUC	1.989 ± 0.006	1.987 ± 0.018
UAAUGC	1.93 ± 0.023	1.823 ± 0.0029
CUUGUU	1.909 ± 0.0024	1.9 ± 0.022
GCUCAG	1.86 ± 0.019	1.31 ± 0.057

Variant	normalized RNA/DNA level with ligand (log10) [1]	normalized RNA/DNA level without ligand (log10) [2]
ACCUCG	1.928 ± 0.017	1.62 ± 0.062
GCUUCA	1.966 ± 0.0076	1.898 ± 0.011
ACACUC	1.96 ± 0.023	1.97 ± 0.063
ACAGUG	1.85 ± 0.039	1.35 ± 0.021
AGUCUU	1.96 ± 0.04	1.89 ± 0.036
GCGGCC	2 ± 0.046	1.76 ± 0.076
AUGACC	1.914 ± 0.019	1.902 ± 0.016
CCAGUC	1.99 ± 0.038	1.974 ± 0.0045
GUCCCU	1.934 ± 0.016	1.92 ± 0.05
CGGAUA	1.87 ± 0.041	1.51 ± 0.085
CGGAUC	2.018 ± 0.0066	1.92 ± 0.028
UAACCU	1.983 ± 0.011	1.91 ± 0.04
GCGUCG	1.89 ± 0.037	1.53 ± 0.041
GCGUCU	1.98 ± 0.085	1.772 ± 0.0055
GGCCGC	1.879 ± 0.014	1.7 ± 0.06
ACUUUG	1.91 ± 0.043	1.57 ± 0.021
CAUGCA	1.979 ± 0.013	1.688 ± 0.016
CGUGUC	1.947 ± 0.015	1.94 ± 0.039
CAUAUA	1.9 ± 0.027	1.73 ± 0.028
UCGAAC	1.929 ± 0.011	1.734 ± 0.012

Variant	normalized RNA/DNA level with ligand (log10) [1]	normalized RNA/DNA level without ligand (log10) [2]
AUUGUA	1.89 ± 0.021	1.78 ± 0.022
UUUUGG	1.898 ± 0.0019	1.738 ± 0.007
UCUGUC	1.96 ± 0.0083	1.956 ± 0.011
AACCUC	1.937 ± 0.018	1.96 ± 0.027
AGCGUA	1.94 ± 0.027	1.77 ± 0.034
CCUUAU	1.95 ± 0.014	1.93 ± 0.069
AUCUCA	1.96 ± 0.071	1.89 ± 0.043
CGAAAG	1.94 ± 0.04	1.839 ± 0.0055
ACUUGA	1.935 ± 0.017	1.72 ± 0.027
CACGUC	1.98 ± 0.061	1.971 ± 0.005
CGUCGA	1.914 ± 0.011	1.85 ± 0.052
CUUUGG	1.88 ± 0.032	1.58 ± 0.043
CUUUGU	1.93 ± 0.021	1.975 ± 0.013
GGAUUU	1.99 ± 0.024	1.89 ± 0.02
AGCCCC	1.963 ± 0.015	1.91 ± 0.089
AUUAUG	1.891 ± 0.0046	1.48 ± 0.043
AUUAUC	2.02 ± 0.021	1.97 ± 0.02
GUACUC	1.93 ± 0.053	1.92 ± 0.032
